# According to patent publication US20050186649 (published 2005):
# Positions count from the first letter of the chain named.
# B1: SPI11 (protein)
# chain: MHSFCAFKAETGPCRARFDRWFFNIFTRQCEEFIYGGCEGNQNRFESLEECKKMCTRD
# B2: QS4 (protein)
# chain: MHSFCAFKADDGPCKARFERFFFNIFTRQCEQFYYGGCDGNQNRFESLEECKKMCTRD
# B3: SPI51 (protein)
# chain: B2 chain with D11A, K15R, R17K, E31T, Q32A, Y34F, D39G
# B4: SPI22 (protein)
# chain: B2 chain with D11G, A16G, R17K, E19P, Q32E, Y34I, D39E
# B5: SPI47 (protein)
# chain: B1 chain with E10D, T11A, R17K, D19E, W21F
# B6: SPI23 (protein)
# chain: B1 chain with T11G, R17K, D19Q
# B7: SPI43 (protein)
# chain: B1 chain with A16G, R17K, E32S, I34H, E39K
# B8: SPI54 (protein)
# chain: B1 chain with E10D, T11S, E31T, E32R, I34P, E39G
# B9: human plasmin (protein)
# chain: KVYLSECKTGNGKNYRGTMSKTKNGITCQKWSSTSPHRPRFSPATHPSEGLEENYCRNPDNDPQGPWCYTTDPEKRYDYCDILECEEECMHCSGENYDGKISKTMSGLECQAWDSQSPHAHGYIPSKFPNKNLKKNYCRNPDRELRPWCFTTDPNKRWELCDIPRCTTPPPSSGPTYQCLKGTGENYRGNVAVTVSGHTCQHWSAQTPHTHNRTPENFPCKNLDENYCRNPDGKRAPWCHTTNSQVRWEYCKIPSCDSSPVSTEQLAPTAPPELTPVVQDCYHGDGQSYRGTSSTTTTGKKCQSWSSMTPHRHQKTPENYPNAGLTMNYCRNPDADKGPWCFTTDPSVRWEYCNLKKCSGTEASVVAPPPVVLLPDVETPSEEDCMFGNGKGYRGKRATTVTGTPCQDWAAQEPHRHSIFTPETNPRAGLEKNYCRNPDGDVGGPWCYTTNPRKLYDYCDVPQCAAPSFDCGKPQVEPKKCPGRVVGGCVAHPHSWPWQVSLRTRFGMHFCGGTLISPEWVLTAAHCLEKSPRPSSYKVILGAHQEVNLEPHVQEIEVSRLFLEPTRKDIALLKLSSPAVITDKVIPACLPSPNYVVADRTECFITGWGETQGTFGAGLLKEAQLPVIENKVCNRYEFLNGRVQSTELCAGHLAGGTDSCQGDSGGPLVCFEKDKYILQGVTSWGLGCARPNKPGVYVRVSRFVTWIEGVMRNN
# Molecular target: B9
row,Ki [nM],Binder
1,0.088,B1

# Molecular target: B9
# Remark: another data set of the same source
row,Kd [nM],Binder
1,2,B2
2,~0.5,B3
3,0.088,B1
4,> 2,B4
5,~0.8,B5
6,~0.5,B6
7,> 4,B7
8,> 4,B8

# Molecular target: BPTI (Bos taurus)
row,Kd [nM],Binder
1,0.3,B9
